Consider 17 molecules from article PMC12148503, “Molecular Basis of Interchain Disulfide Bond Formation in BMP-9 and BMP-10” (Journal of molecular biology, 2025).

Residue numbers refer to the chain shown, from its start. Names and notes keep the numbering of the source.

The target in data set [1] is BMP-9 monomer (cysteinylated BMP-9 growth factor) (human) (UniProt Q9UK05).
For data set [2], the target named is BMP-9 disulfide-linked dimer (wild-type growth factor) (human) (UniProt Q9UK05).
The target in data set [3] is T1, Pro-(X)-BMP-10 S385G, R353K, O95393.
T1 chain: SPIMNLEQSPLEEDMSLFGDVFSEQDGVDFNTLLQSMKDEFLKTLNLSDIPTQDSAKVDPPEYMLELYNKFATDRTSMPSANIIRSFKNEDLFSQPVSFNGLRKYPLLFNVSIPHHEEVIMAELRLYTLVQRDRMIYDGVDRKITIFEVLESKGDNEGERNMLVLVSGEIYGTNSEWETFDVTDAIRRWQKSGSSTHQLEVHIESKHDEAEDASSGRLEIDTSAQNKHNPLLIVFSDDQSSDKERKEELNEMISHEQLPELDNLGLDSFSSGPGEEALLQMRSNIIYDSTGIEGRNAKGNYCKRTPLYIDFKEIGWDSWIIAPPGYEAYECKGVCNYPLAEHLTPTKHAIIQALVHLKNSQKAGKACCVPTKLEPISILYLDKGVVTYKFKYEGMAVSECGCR
Briefly: SDS-PAGE densitometry. To be noted: chain shown with the change; IMAC column purified Pro-BMP-10.

Data set [4] concerns the molecule itself. Description: non-reducing SDS-PAGE with densitometry; IMAC-purified pro-proteins from expi293 conditioned medium, non-reduced against reduced; bands of disulfide-linked dimer and monomer.
For data set [5], the target named is T2, Pro-(X)-BMP-10 R353K, O95393.
T2 chain: T1 chain with G364S
Description: SDS-PAGE densitometry. The following applies: chain shown with the change; IMAC column purified Pro-BMP-10.

Data set [6] concerns the target T3, Pro-(X)-BMP-10 S385G, O95393.
T3 chain: T1 chain with K332R
Briefly: SDS-PAGE densitometry. The following applies: chain shown with the change; IMAC column purified Pro-BMP-10.

Data set [7] addresses BMP-10 monomer (cysteinylated BMP-10 growth factor) (human) (UniProt O95393).
Data set [8] deals with BMP-10 disulfide-linked dimer (growth factor) (human) (UniProt O95393).
Data set [9] concerns the molecule itself. Description: crystal structure; BMP-9 disulfide-linked dimers (wild type and mutants) at neutral pH; 1 M NaCl, glycerol, 0.1 M HEPES pH 7.4; multi-crystal data split into fractions.

For the molecule “BMP-9 monomer (cysteinylated BMP-9 growth factor) (from UniProt Q9UK05 320-429) (ligand)”, in data set [1], the EC50 of pSMAD1/5/9 (western blot) in serum-starved HUVECs treated for 45 min with BMP-9 monomer, 0.01-54 ng/mL is 124 pM.
The molecule “BMP-9 disulfide-linked dimer (wild-type growth factor) (from UniProt Q9UK05 320-429) (ligand)” had an EC50 of pSMAD1/5/9 (western blot) in serum-starved HUVECs treated for 45 min with BMP-9 disulfide-linked dimer, 0.001-1.62 ng/mL in [2] of 3.3 pM.

B1: Pro-(X)-BMP-10, O95393 S385G; R353K (protein)
chain: T1 chain
Regarding B1, the other: disulfide-linked dimer over monomer ratio in data set [3] came to 0.41.

B2: Pro-(fr)-BMP-10 (natural protein, human, UniProt O95393 22-424, looked up)
chain: T1 chain with G291A, I292R, E293I, G294R, K332R, G364S
notes: Human proBMP10 residues 22-424 with the natural furin site; Partially processed by furin: the sample holds unprocessed pro-protein, prodomain and growth factor (12 and 24 kDa); also called Pro-BMP-10 with unmodified furin processing site; wild-type BMP-10; source: expi293 (suspension HEK293), secreted; purified from conditioned medium by IMAC; not shown: 8xHis, N-terminal, kept
As for B2, in [4], the binding result was “binds”.

B3: Pro-(X)-BMP-10, O95393 R353K (protein)
chain: T1 chain with G364S
With B3, in data set [5], the other: disulfide-linked dimer over monomer ratio turned out to be 0.9.

B4: Pro-(X)-BMP-10, O95393 S385G (protein)
chain: T1 chain with K332R
As for B4, the other: disulfide-linked dimer over monomer ratio in [6] stood at 0.42.

B5: BMP-10 monomer (cysteinylated BMP-10 growth factor) (ligand)
chain: NAKGNYCKRTPLYIDFKEIGWDSWIIAPPGYEAYECRGVCNYPLAEHLTPTKHAIIQALVHLKNSQKASKACCVPTKLEPISILYLDKGVVTYKFKYEGMAVSECGCR
modifications: cysteinylated (+119 Da; the paper places it on the interchain cysteine)
Molecule B5 yielded an EC50 of pSMAD1/5/9 (western blot) in serum-starved HUVECs treated for 45 min with BMP-10 monomer, 0.01-54 ng/mL in data set [7] of 164 pM.

B6: BMP-10 disulfide-linked dimer (growth factor) (ligand)
chain: B5 chain
modifications: interchain disulfide
B6: the EC50 of pSMAD1/5/9 (western blot) in serum-starved HUVECs treated for 45 min with BMP-10 disulfide-linked dimer, 0.001-1.62 ng/mL in [8] came out at 5.9 pM.

B7: Pro-(fr)-Act-A (natural protein, human, UniProt P08476 27-426, looked up)
chain: EGHSAAPDCPSCALAALPKDVPNSQPEMVEAVKKHILNMLHLKKRPDVTQPVPKAALLNAIRKLHVGKVGENGYVEIEDDIGRRAEMNELMEQTSEIITFAESGTARKTLHFEISKEGSDLSVVERAEVWLFLKVPKANRTRTKVTIRLFQQQKHPQGSLDTGEEAEEVGLKGERSELLLSEKVVDARKSTWHVFPVSSSIQRLLDQGKSSLDVRIACEQCQESGASLVLLGKKKKKEEEGEGKKKGGGEGGAGADEEKEQSHRPFLMLQARQSEDHPHRRRRRGLECDGKVNICCKKQFFVSFKDIGWNDWIIAPSGYHANYCEGECPSHIAGTSGSSLSFHSTVINHYRMRGHSPFANLKSCCVPTKLRPMSMLYYDDGQNIIKKDIQNMIVEECGCS
notes: Human proINHBA residues 27-426; The results call it N-terminally histidine-tagged and purified by that tag; the methods say 'with no tag or processing site'; Furin processing incomplete; also called Pro-Activin-A; Pro-Act-A; source: expi293 (suspension HEK293), secreted; purified from conditioned medium by the histidine tag (IMAC); not shown: His tag, N-terminal, kept
For B7, the binding result in [4] is “binds”.

B8: Pro-(fr)-TGF-β2 (natural protein, human, UniProt P61812-1 19-414, looked up)
chain: LSLSTSSTLDMDQFMRKRIEAIRGQILSKLKLTSPPEDYPEPEEVPPEVISIYNSTRDLLQEKASRRAAACERERSDEEYYAKEVYKIDMPPFFPSENAIPPTFYRPYFRIVRFDVSAMEKNASNLVKAEFRVFRLQNPKARVAEQRIELYQILKSKDLTSPTQRYIDSKVVKTRAEGEWLSFDVTDAVHEWLHHKDRNLGFKISLHCPCCTFVPSNNYIIPNKSEELEARFAGIDGTSTYTSGDQKTIKSTRKKNSGKTPHLLLMLLPSYRLESQQTNRRKKRALDAAYCFRNVQDNCCLRPLYIDFKRDLGWKWIHEPKGYNANFCAGACPYLWSSDTQHSRVLSLYNTINPEASASPCCVSQDLEPLTILYYIGKTPKIEQLSNMIVKSCKCS
notes: Human proTGF-β2 residues 19-414; Behind the mouse Ig signal peptide and the 8xHis tag, no processing site after the tag; Furin processing incomplete; also called Pro-TGF-β2; source: expi293 (suspension HEK293), secreted; purified from conditioned medium by the histidine tag (IMAC); not shown: 8xHis, N-terminal, kept
As to B8, in [4], the binding result is listed as “binds”.

B9: BMP-9 G389S, K357R disulfide-linked dimer (ligand, human, UniProt Q9UK05 320-429, looked up)
chain: SSGAGSHCQKTSLRVNFEDIGWDSWIIAPKEYEAYECRGGCFFPLADDVTPTKHAIVQTLVHLKFPTKVSKACCVPTKLSPISVLYKDDMGVPTLKYHYEGMSVAECGCR
modifications: interchain disulfide Cys-392 to Cys-392'
notes: Human BMP-9 growth factor released by factor Xa from the G389S, K357R mutant of Pro-(X)-BMP-9 (proBMP9 residues 23-429, A321S, RRKR replaced by IEGR); also called BMP-9 double-mutant; BMP-9 G389S K357R Dimer; source: expi293 (suspension HEK293), secreted as Pro-(X)-BMP-9 mutant; IMAC, factor Xa digestion, C18 reverse phase
B9: the binding result in data set [9] is “binds”.

B10: BMP-9 G389S disulfide-linked dimer (ligand, human, UniProt Q9UK05 320-429, looked up)
chain: B9 chain with R38K
modifications: interchain disulfide Cys-392 to Cys-392'
notes: Human BMP-9 growth factor released by factor Xa from the G389S mutant of Pro-(X)-BMP-9 (proBMP9 residues 23-429, A321S, RRKR replaced by IEGR); also called BMP-9 G389S Dimer; source: expi293 (suspension HEK293), secreted as Pro-(X)-BMP-9 mutant; IMAC, factor Xa digestion, C18 reverse phase
With B10, the binding result in data set [9] was “binds”.

B11: Pro-(fr)-BMP-9 (natural protein, human, UniProt Q9UK05 23-429, looked up)
chain: KPLQSWGRGSAGGNAHSPLGVPGGGLPEHTFNLKMFLENVKVDFLRSLNLSGVPSQDKTRVEPPQYMIDLYNRYTSDKSTTPASNIVRSFSMEDAISITATEDFPFQKHILLFNISIPRHEQITRAELRLYVSCQNHVDPSHDLKGSVVIYDVLDGTDAWDSATETKTFLVSQDIQDEGWETLEVSSAVKRWVRSDSTKSKNKLEVTVESHRKGCDTLDISVPPGSRNLPFFVVFSNDHSSGTKETRLELREMISHEQESVLKKLSKDGSTEAGESSHEEDTDGHVAAGSTLARRKRSSGAGSHCQKTSLRVNFEDIGWDSWIIAPKEYEAYECKGGCFFPLADDVTPTKHAIVQTLVHLKFPTKVGKACCVPTKLSPISVLYKDDMGVPTLKYHYEGMSVAECGCR
notes: Human proBMP9 residues 23-429 with the natural furin site; Partially processed by furin: the sample holds unprocessed pro-protein, prodomain and growth factor (12 and 24 kDa); also called Pro-BMP-9 with unmodified furin processing site; wild-type BMP-9; source: expi293 (suspension HEK293), secreted; purified from conditioned medium by IMAC; not shown: 8xHis, N-terminal, kept
In the case of B11, in data set [4], the binding result is on record as “binds”.

B12: Pro-(X)-BMP-9 G389S (natural protein, human, UniProt Q9UK05 23-429, looked up)
chain: B11 chain with R294I, R295E, K296G, G367S
notes: Human proBMP9 residues 23-429; mutant based on Pro-(X)-BMP-9; also called G389S BMP-9; source: expi293 (suspension HEK293), secreted; purified from conditioned medium by IMAC; not shown: 8xHis, N-terminal, kept
B12: the binding result in data set [4] was “binds”.

B13: Pro-(X)-BMP-9 G389S, K357R (natural protein, human, UniProt Q9UK05 23-429, looked up)
chain: B11 chain with R294I, R295E, K296G, K335R, G367S
notes: Human proBMP9 residues 23-429; mutant based on Pro-(X)-BMP-9; also called G389S, K357R BMP-9; BMP-9 double mutant; source: expi293 (suspension HEK293), secreted; purified from conditioned medium by IMAC; not shown: 8xHis, N-terminal, kept
On to B13, for which the binding result in [4] is on record as “binds”.

B14: Pro-(X)-BMP-9 K357R (natural protein, human, UniProt Q9UK05 23-429, looked up)
chain: B11 chain with R294I, R295E, K296G, K335R
notes: Human proBMP9 residues 23-429; mutant based on Pro-(X)-BMP-9; also called K357R BMP-9; source: expi293 (suspension HEK293), secreted; purified from conditioned medium by IMAC; not shown: 8xHis, N-terminal, kept
Take B14: the binding result in data set [4] is “binds”.

B15: Pro-(X)-BMP-9 (natural protein, human, UniProt Q9UK05 23-429, looked up)
chain: B11 chain with R294I, R295E, K296G
notes: Human proBMP9 residues 23-429; Behind the rat serum albumin signal peptide, the 8xHis tag and a factor Xa site (IEGR); Secreted unprocessed as a mixture of disulfide-linked dimers and monomers; also called Pro-BMP-9 with the furin site replaced by a factor X site; Pro-BMP-9 wild-type; source: expi293 (suspension HEK293), secreted; purified from conditioned medium by IMAC; not shown: 8xHis, …
B15: in [4], the binding result is “binds”.
